{"source": "patent US20220308072A1", "key": {"[1]": {"target": "Recombinant, his tagged full length human frataxin protein (Abcam ab95502) (human) (UniProt Q16595)", "sequence (Q16595 42-210)": "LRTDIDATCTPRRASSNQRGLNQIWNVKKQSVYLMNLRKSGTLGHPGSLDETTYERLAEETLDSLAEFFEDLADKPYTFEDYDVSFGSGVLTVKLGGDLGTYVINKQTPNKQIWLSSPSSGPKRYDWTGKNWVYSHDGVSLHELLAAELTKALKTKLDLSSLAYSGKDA", "test": "Simoa sandwich 2-step; capture Ab-3; frataxin 100 pg/mL"}, "[2]": {"target": "Recombinant, his tagged full length human frataxin protein (Abcam ab95502) (human) (UniProt Q16595)", "test": "Simoa sandwich 2-step; capture Ab-3"}, "[3]": {"target": "Recombinant, his tagged full length human frataxin protein (Abcam ab95502) (human) (UniProt Q16595)", "test": "Simoa sandwich 3-step; capture Ab-4"}, "[4]": {"target": "Recombinant, his tagged full length human frataxin protein (Abcam ab95502) (human) (UniProt Q16595)", "test": "Simoa sandwich 3-step; capture Ab-3; frataxin 1000 pg/mL"}, "[5]": {"target": "Recombinant, his tagged full length human frataxin protein (Abcam ab95502) (human) (UniProt Q16595)", "test": "Simoa sandwich 3-step; capture Ab-1; frataxin 1000 pg/mL"}, "[6]": {"target": "Recombinant, his tagged full length human frataxin protein (Abcam ab95502) (human) (UniProt Q16595)", "test": "Simoa sandwich 3-step; capture Ab-1; frataxin 10000 pg/mL"}, "[7]": {"target": "Recombinant, his tagged full length human frataxin protein (Abcam ab95502) (human) (UniProt Q16595)", "test": "Simoa sandwich 2-step; capture Ab-3; frataxin 55.6 pg/mL"}, "[8]": {"target": "Recombinant, his tagged full length human frataxin protein (Abcam ab95502) (human) (UniProt Q16595)", "test": "Simoa sandwich 3-step; capture Ab-2; frataxin 1000 pg/mL"}, "[9]": {"target": "Recombinant, his tagged full length human frataxin protein (Abcam ab95502) (human) (UniProt Q16595)", "test": "Simoa sandwich 2-step; capture Ab-3; frataxin 0.686 pg/mL"}, "[10]": {"target": "Recombinant, his tagged full length human frataxin protein (Abcam ab95502) (human) (UniProt Q16595)", "test": "Simoa sandwich 2-step; capture Ab-3; frataxin 18.5 pg/mL"}, "[11]": {"target": "Recombinant, his tagged full length human frataxin protein (Abcam ab95502) (human) (UniProt Q16595)", "test": "Simoa sandwich 2-step; capture Ab-3; frataxin 1000 pg/mL"}, "[12]": {"target": "Recombinant, his tagged full length human frataxin protein (Abcam ab95502) (human) (UniProt Q16595)", "test": "Simoa sandwich 3-step; capture Ab-3; frataxin 100 pg/mL"}, "[13]": {"target": "Recombinant, his tagged full length human frataxin protein (Abcam ab95502) (human) (UniProt Q16595)", "test": "Simoa sandwich 3-step; capture Ab-2; frataxin 10000 pg/mL"}, "[14]": {"target": "Recombinant, his tagged full length human frataxin protein (Abcam ab95502) (human) (UniProt Q16595)", "test": "Simoa sandwich 3-step; capture Ab-3; frataxin 100 pg/mL", "remark": "listed apart in the source"}, "[15]": {"target": "Recombinant, his tagged full length human frataxin protein (Abcam ab95502) (human) (UniProt Q16595)", "test": "Simoa sandwich 3-step; capture Ab-3"}, "[16]": {"target": "Recombinant, his tagged full length human frataxin protein (Abcam ab95502) (human) (UniProt Q16595)", "test": "Simoa sandwich 3-step; capture Ab-2"}, "[17]": {"target": "Recombinant, his tagged full length human frataxin protein (Abcam ab95502) (human) (UniProt Q16595)", "test": "Simoa sandwich 3-step; capture Ab-5; frataxin 1000 pg/mL"}, "[18]": {"target": "Recombinant, his tagged full length human frataxin protein (Abcam ab95502) (human) (UniProt Q16595)", "test": "Simoa sandwich 3-step; capture Ab-4; frataxin 10000 pg/mL"}, "[19]": {"target": "Recombinant, his tagged full length human frataxin protein (Abcam ab95502) (human) (UniProt Q16595)", "test": "Simoa sandwich 2-step; capture Ab-3; frataxin 6.17 pg/mL"}, "[20]": {"target": "Recombinant, his tagged full length human frataxin protein (Abcam ab95502) (human) (UniProt Q16595)", "test": "Simoa sandwich 3-step; capture Ab-1; frataxin 100 pg/mL"}, "[21]": {"target": "Recombinant, his tagged full length human frataxin protein (Abcam ab95502) (human) (UniProt Q16595)", "test": "Simoa sandwich 3-step; capture Ab-2; frataxin 100 pg/mL"}, "[22]": {"target": "Recombinant, his tagged full length human frataxin protein (Abcam ab95502) (human) (UniProt Q16595)", "test": "Simoa sandwich 3-step; capture Ab-5"}, "[23]": {"target": "Recombinant, his tagged full length human frataxin protein (Abcam ab95502) (human) (UniProt Q16595)", "test": "Simoa sandwich 3-step; capture Ab-4; frataxin 100 pg/mL"}, "[24]": {"target": "Recombinant, his tagged full length human frataxin protein (Abcam ab95502) (human) (UniProt Q16595)", "test": "Simoa sandwich 2-step; capture Ab-3; frataxin 2.06 pg/mL"}, "[25]": {"target": "Recombinant, his tagged full length human frataxin protein (Abcam ab95502) (human) (UniProt Q16595)", "test": "Simoa sandwich 3-step; capture Ab-5; frataxin 100 pg/mL"}, "[26]": {"target": "Recombinant, his tagged full length human frataxin protein (Abcam ab95502) (human) (UniProt Q16595)", "test": "Simoa sandwich 2-step; capture Ab-3; frataxin 167 pg/mL"}, "[27]": {"target": "Recombinant, his tagged full length human frataxin protein (Abcam ab95502) (human) (UniProt Q16595)", "test": "Simoa sandwich 3-step; capture Ab-3", "remark": "listed apart in the source"}, "[28]": {"target": "Recombinant, his tagged full length human frataxin protein (Abcam ab95502) (human) (UniProt Q16595)", "test": "Simoa sandwich 3-step; capture Ab-3; frataxin 1000 pg/mL", "remark": "listed apart in the source"}, "[29]": {"target": "Recombinant, his tagged full length human frataxin protein (Abcam ab95502) (human) (UniProt Q16595)", "test": "Simoa sandwich 3-step; capture Ab-1"}, "[30]": {"target": "Recombinant, his tagged full length human frataxin protein (Abcam ab95502) (human) (UniProt Q16595)", "test": "Simoa sandwich 3-step; capture Ab-4; frataxin 1000 pg/mL"}, "[31]": {"target": "Recombinant, his tagged full length human frataxin protein (Abcam ab95502) (human) (UniProt Q16595)", "test": "Simoa sandwich 2-step; capture Ab-3; frataxin 500 pg/mL"}, "[32]": {"target": "Recombinant, his tagged full length human frataxin protein (Abcam ab95502) (human) (UniProt Q16595)", "test": "Simoa sandwich 2-step; capture Ab-3", "remark": "listed apart in the source"}}}
{"substance": "Ab-4, mouse monoclonal [17A11] to Frataxin (Abcam ab113691) (antibody)", "values": [{"measurement": "Ave AEB", "setting": "[1]", "value": 5.1, "unit": "AEB"}, {"measurement": "S/B", "setting": "[1]", "value": 67.6}, {"measurement": "LOD", "setting": "[2]", "value": 0.44, "unit": "pg/mL"}, {"measurement": "LOD", "setting": "[3]", "value": 358, "unit": "pg/mL"}, {"measurement": "Ave AEB", "setting": "[4]", "value": 12.8, "unit": "AEB"}, {"measurement": "S/B", "setting": "[4]", "value": 160}, {"measurement": "Ave AEB", "setting": "[5]", "value": 8.74, "unit": "AEB"}, {"measurement": "S/B", "setting": "[5]", "value": 39.6}, {"measurement": "Ave AEB", "setting": "[6]", "value": 30.9, "unit": "AEB"}, {"measurement": "S/B", "setting": "[6]", "value": 140}, {"measurement": "Ave AEB", "setting": "[7]", "value": 3.75, "unit": "AEB"}, {"measurement": "S/B", "setting": "[7]", "value": 32.6}, {"measurement": "Ave AEB", "setting": "[8]", "value": 7.32, "unit": "AEB"}, {"measurement": "S/B", "setting": "[8]", "value": 40.7}, {"measurement": "Ave AEB", "setting": "[9]", "value": 0.157, "unit": "AEB"}, {"measurement": "S/B", "setting": "[9]", "value": 1.36}, {"measurement": "Ave AEB", "setting": "[10]", "value": 1.31, "unit": "AEB"}, {"measurement": "S/B", "setting": "[10]", "value": 11.4}, {"measurement": "Ave AEB", "setting": "[11]", "value": 29.7, "unit": "AEB"}, {"measurement": "S/B", "setting": "[11]", "value": 394}, {"measurement": "Ave AEB", "setting": "[12]", "value": 1.34, "unit": "AEB"}, {"measurement": "S/B", "setting": "[12]", "value": 16.8}, {"measurement": "Ave AEB", "setting": "[13]", "value": 32.9, "unit": "AEB"}, {"measurement": "S/B", "setting": "[13]", "value": 183}, {"measurement": "Ave AEB", "setting": "[14]", "value": 0.68, "unit": "AEB"}, {"measurement": "S/B", "setting": "[14]", "value": 11.7}, {"measurement": "LOD", "setting": "[15]", "value": 1.59, "unit": "pg/mL"}, {"measurement": "LOD", "setting": "[16]", "value": 5.01, "unit": "pg/mL"}, {"measurement": "Ave AEB", "setting": "[17]", "value": 18.6, "unit": "AEB"}, {"measurement": "S/B", "setting": "[17]", "value": 45.4}, {"measurement": "Ave AEB", "setting": "[18]", "value": 0.82, "unit": "AEB"}, {"measurement": "S/B", "setting": "[18]", "value": 35.6}, {"measurement": "Ave AEB", "setting": "[19]", "value": 0.56, "unit": "AEB"}, {"measurement": "S/B", "setting": "[19]", "value": 4.87}, {"measurement": "Ave AEB", "setting": "[20]", "value": 0.64, "unit": "AEB"}, {"measurement": "S/B", "setting": "[20]", "value": 2.9}, {"measurement": "Ave AEB", "setting": "[21]", "value": 1.02, "unit": "AEB"}, {"measurement": "S/B", "setting": "[21]", "value": 5.67}, {"measurement": "LOD", "setting": "[22]", "value": 6.44, "unit": "pg/mL"}, {"measurement": "Ave AEB", "setting": "[23]", "value": 0.0213, "unit": "AEB"}, {"measurement": "S/B", "setting": "[23]", "value": 0.93}, {"measurement": "Ave AEB", "setting": "[24]", "value": 0.259, "unit": "AEB"}, {"measurement": "S/B", "setting": "[24]", "value": 2.25}, {"measurement": "Ave AEB", "setting": "[25]", "value": 2.02, "unit": "AEB"}, {"measurement": "S/B", "setting": "[25]", "value": 4.93}, {"measurement": "Ave AEB", "setting": "[26]", "value": 11.1, "unit": "AEB"}, {"measurement": "S/B", "setting": "[26]", "value": 97}, {"measurement": "LOD", "setting": "[27]", "value": 2.41, "unit": "pg/mL"}, {"measurement": "Ave AEB", "setting": "[28]", "value": 8.02, "unit": "AEB"}, {"measurement": "S/B", "setting": "[28]", "value": 138}, {"measurement": "LOD", "setting": "[29]", "value": 23.9, "unit": "pg/mL"}, {"measurement": "Ave AEB", "setting": "[30]", "value": 0.0589, "unit": "AEB"}, {"measurement": "S/B", "setting": "[30]", "value": 2.55}, {"measurement": "Ave AEB", "setting": "[31]", "value": 23.7, "unit": "AEB"}, {"measurement": "S/B", "setting": "[31]", "value": 206}, {"measurement": "LOD", "setting": "[32]", "value": 0.36, "unit": "pg/mL"}]}
